T1: amphyphisin SH3 (AMPH_HUMAN), P49418
T1 chain: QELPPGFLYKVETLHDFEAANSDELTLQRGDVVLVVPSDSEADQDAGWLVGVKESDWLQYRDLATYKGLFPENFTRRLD


Legend:
[1] = biological target: endophilin SH3 (SH3G2_HUMAN), Q99962; experiment: SPOT array
[2] = biological target: T1, amphyphisin SH3 (AMPH_HUMAN), P49418; experiment: SPOT array

Binder | normalised SPOT signal, Boehringer light units (BLU); mean over the file's lines of this peptide [1] | normalised SPOT signal, Boehringer light units (BLU); mean over the file's lines of this peptide [2]
YGLSPLRPPSVLPP [O14686 2329-2343] | 118 | 40
YPARPRRPASTAGS [Q9BTV6 12-25] | 2010 | 4030
YERTLRRPVPLPHS [O94824 705-718] | 297 | 37
WRRSLRRPDSRGRF [Q9H1V5 704-717] | 217 | 95.6
YHPPIFRPMKRINL [Q9HC18 65-78] | 250 | 164
SNKGFRRPSEKNQH [Q9Y4J6 675-688] | 55.9 | 43.2
WLTSLKRPLVVIHE [P54198 312-325] | 326 | 26.3
WSEVLHRPWRNHPI [O43397 6-19] | 366 | 272
WTDRPERPSKPLLT [O15250 155-168] | 508 | 3180
YSTGPPRPGRLFGS [Q13006 89-102] | 364 | 317
SQKAFKRPSDLRQH [Q9P2F9 337-350] | 19 | 61.1
YHLPLRRPSPGFSW [O95428 295-308] | 1270 | 135
SPSAPRRPRRPRRP [Q96QG0 338-351] | 1730 | 4890
YIFSLVRPARYQRV [P41440 139-152] | 1780 | 2220
SLTRIPRPGRQRRD [Q12770 808-821] | 294 | 817
YGPNIGRPRKNVIA [Q9HB39 190-203] | 166 | 134
YKPPLSRPLRPGPW [Q9H1B5 714-727] | 263 | 1210
YLTVLGRPDRPRDL [O94856 414-427] | 127 | 386
YKVSPGRPPGSIKA [BAC04448 133-147] | 553 | 48.6
YAMGFNRPSKIQEN [Q9UMR2 108-121] | 244 | 237
YEEPPQKPPRFSQL [Q92625 879-893] | 131 | 3280

Reference: article PMC314469, “Protein Interaction Networks by Proteome Peptide Scanning” (PLoS Biology, 2004)
